Results published in IntAct's records for PubMed 18188153.

B1: Glutamate receptor 4 (Rattus norvegicus (Rat)), P19493 (parent)
chain: MRIICRQIVLLFSGFWGLAMGAFPSSVQIGGLFIRNTDQEYTAFRLAIFLHNTSPNASEAPFNLVPHVDNIETANSFAVTNAFCSQYSRGVFAIFGLYDKRSVHTLTSFCSALHISLITPSFPTEGESQFVLQLRPSLRGALLSLLDHYEWNCFVFLYDTDRGYSILQAIMEKAGQNGWHVSAICVENFNDVSYRQLLEELDRRQEKKFVIDCEIERLQNILEQIVSVGKHVKGYHYIIANLGFKDISLERFIHGGANVTGFQLVDFNTPMVTKLMDRWKKLDQREYPGSETPPKYTSALTYDGVLVMAETFRSLRRQKIDISRRGNAGDCLANPAAPWGQGIDMERTLKQVRIQGLTGNVQFDHYGRRVNYTMDVFELKSTGPRKVGYWNDMDKLVLIQDMPTLGNDTAAIENRTVVVTTIMESPYVMYKKNHEMFEGNDKYEGYCVDLASEIAKHIGIKYKIAIVPDGKYGARDADTKIWNGMVGELVYGKAEIAIAPLTITLVREEVIDFSKPFMSLGISIMIKKPQKSKPGVFSFLDPLAYEIWMCIVFAYIGVSVVLFLVSRFSPYEWHTEEPEDGKEGPSDQPPNEFGIFNSLWFSLGAFMQQGCDISPRSLSGRIVGGVWWFFTLIIISSYTANLAAFLTVERMVSPIESAEDLAKQTEIAYGTLDSGSTKEFFRRSKIAVYEKMWTYMRSAEPSVFTRTTAEGVARVRKSKGKFAFLLESTMNEYTEQRKPCDTMKVGGNLDSKGYGVATPKGSSLGNAVNLAVLKLNEQGLLDKLKNKWWYDKGECGSGGGDSKDKTSALSLSNVAGVFYILVGGLGLAMLVALIEFCYKSRAEAKRMKLTFSEATRNKARLSITGSVGENGRVLTPDCPKAVHTGTAIRQSSGLAVIASDLP

Variants of: B1
Details: with mk08_rat Mapk8, P49185
mk08_rat Mapk8, P49185, sequence (P49185 whole entry): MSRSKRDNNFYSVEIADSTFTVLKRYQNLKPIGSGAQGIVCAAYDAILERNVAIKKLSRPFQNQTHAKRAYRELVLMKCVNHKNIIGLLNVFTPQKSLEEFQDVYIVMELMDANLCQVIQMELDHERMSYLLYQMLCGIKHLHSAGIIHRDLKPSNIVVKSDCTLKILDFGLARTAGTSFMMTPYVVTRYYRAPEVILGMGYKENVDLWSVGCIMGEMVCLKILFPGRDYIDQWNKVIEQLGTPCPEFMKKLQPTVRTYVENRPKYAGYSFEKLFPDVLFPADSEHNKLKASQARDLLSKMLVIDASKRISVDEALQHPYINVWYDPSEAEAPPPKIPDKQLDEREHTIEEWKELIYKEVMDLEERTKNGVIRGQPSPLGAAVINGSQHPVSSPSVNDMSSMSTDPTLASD
In the case of T855A, the “effect of a mutation on the interaction” value is reported as “disrupting interaction”.
